Experimental findings from paper PMC5640805 are described below.

In experiment [1] the target is C108 SOSIP.664 trimer (HIV-1 (isolate C108.c03)). Briefly: negative-stain EM; PGT145-purified SOSIPs; class averages.
For experiment [2] the target is unchanged. As to the kind of experiment: SEC; PGT145-affinity-purified SOSIPs on a Superdex 200 10-300 GL column in PBS. Background: Size exclusion chromatography separates by hydrodynamic size, large species first.
Experiment [3] has as its target MGRM8 SOSIP.664 trimer (HIV-1 (isolate MGRM_AG_002_8)). Briefly: negative-stain EM; PGT145-purified SOSIPs; class averages.
The target is the same in experiment [4]. Briefly: SEC; PGT145-affinity-purified SOSIPs on a Superdex 200 10-300 GL column in PBS.
For experiment [5], the target named is CRF250 SOSIP.664 trimer (HIV-1 (isolate CRF-T250-4)). Briefly: negative-stain EM; PGT145-purified SOSIPs; class averages.
Experiment [6] shares this target. Briefly: SEC; PGT145-affinity-purified SOSIPs on a Superdex 200 10-300 GL column in PBS.
For experiment [7], the target named is WITO SOSIP.664 trimer (HIV-1 (isolate WITO4160.33)). As to the kind of experiment: negative-stain EM; PGT145-purified SOSIPs; class averages.
Experiment [8] has the same target. Briefly: SEC; PGT145-affinity-purified SOSIPs on a Superdex 200 10-300 GL column in PBS.

The term stoichiometry N denotes the number of molecules, sites or subunits per partner or assembly. As for C108 SOSIP.664 trimer (complex), the stoichiometry N in experiment [1] and in experiment [2] was 3 throughout.

Turning to MGRM8 SOSIP.664 trimer (complex), the stoichiometry N in experiment [3] and in experiment [4] was 3 each time.

Turning to CRF250 SOSIP.664 trimer (complex), the stoichiometry N in experiment [5] and in experiment [6] was 3 in each case.

On to WITO SOSIP.664 trimer (complex), for which the stoichiometry N in experiment [7] and in experiment [8] was 3 in each case.
